The text below walks through data of the DeepSol protein solubility set.

The data set is described as follows: soluble on expression in E. coli; label from the status in PepcDB or PDB records.
“PGSSGLPPEKPKNLSCIVNEGKKMRCEWDGGRETHLETNFTLKSEWATHKFADCKAKRDTPTSCTVDYSTVYFVNIEVWVEAENALGKVTSDHINFDPVYKVKPNPPHNLSVINSEELSSILKLTWTNPSIKSVIILKYNIQYRTKDASTWSQIPPEDTASTRSSFTVQDLKPFTEYVFRIRCMKEDGKGYWSDWSEEASGITYEDRPSKEPSFW”: the “soluble on expression in E. coli” value was “soluble”.

For “STSGANSSGSYLPSEIRSSKIDDNYLKELNEDLKLRKQELLEMLKPLEDKNNLLFQRLMSNLEEKQRSLQIMRQIMAGKGCEESSVMELLKEAEEMKQNLERKNKMLRKEMEMLWNKTFEAEELSDQQKAPQTKNKADLQDGKEKQQRKMEWVKYQEQNNILQNDFHGKVIELRIEALKNYQKANDLKLSLYLQQNFEPMQAFLNLPGSQGIRIV”, the “soluble on expression in E. coli” value is recorded as “soluble”.

In the case of “MKVVVQIKDFDKVPQALRSVINLYNDIKDAEIEVVLHQSAIKALLKDSDTRSIIEDLIKKNILIVGCENSIRSQNLSHDQLIPGIKIVTSGVGEIVRKQSEGWIYLAL”, the “soluble on expression in E. coli” value is recorded as “soluble”. Then “MSSDNEIEDLKRAFIFALRKKFPRDSSSSIAIATVNLIRKIIFRENPKTMNDLQVSLANHCKKLHGAERSELIIINIGLMITKLARDEVLQKKGGGEPEPLYTLWRDDDETIKKLKTADMKKIKKDLQASIKELVTEIESSRECIASQSTELLFNNDVVLVHSLRSSQTMHNFLSHAVKSGRKHRVIDVVDEEEHIESTPDFATAIELYEVASKMPEASKVVLVAAAYFPDGSCLVPAGGHQIALLAKRHCVPVYVLAPFYKLCPFFMTNPDSLHTFRSNSLPFDLSAKSAGLVDCLHPAFDCLQSDLVTLFVSNTSCVIPSHVNRLKEDYYHSQDIADY”, with “not soluble”; and “GPLHMKAVVPGPAEHPLQYNYTFWYSRRTPGRPTSSQSYEQNIKQIGTFASVEQFWRFYSHMVRPGDLTGHSDFHLFKEGIKPMWEDDANKNGGKWIIRLRKGLASRCWENLILAMLGEQFMVGEEICGAVVSVRFQEDIISIWNKTASDQATTARIRDTLRRVLNLPPNTIMEYKTHTDSIKMPGRLGPQRLLF”, with “soluble”. As to “MKITYIHHSSFLVELEHVSMLFDYYAGQLPEIRKDRPLVVFASHFHGDHFAPVIFDLAKDREDVNYVLSKDISKKKVPDNLIGRVTFVKAGEKLALYTEGRKAGLEIETFKSTDEGVAFWITCEGSTIYHAGDLNNWWWEGEDKAWNHNMAANYAHEMEKMEGRTVDAAFVPLDPRLEQWFYLGMKEFMEKVDAKAVIPMHFWKDYSIIEKMRQHPSSEGWRERLVEIHREGEELAI”, the “soluble on expression in E. coli” value was “not soluble”. As for “MENKLKLVVVGDTYTGKTSLLVAYTKKQFLDNYTTTVFDNWAVSVHIDNKNYAVNLFDTAGQGNYEQIRCLSYPHANVFLVCFSMIDRKTLESCRSTWIPEIRKYAGDNVPIMLVGTKNDLVDDADSRNTVTEDYAKRVAHEIGCHKFYSCSALTHKGLKRVFDESFLAAVGVKLEEETPNPCCTIL”, the entry is “not soluble”.

Take “NLLDDAVKRISEDPPCKCPTKFCVERLSQGRYRVGEKILFIRMLHNKHVMVRVGGGWETFAGYLLKHDPCRMLQISRVDGKTSP”: the “soluble on expression in E. coli” value was “soluble”. As for “MNVVKFGGSSLASAPQLQKVLQIVKEEPRRTFVVVSAPGKRTPQDIKVTDLLIQYYQRYLNNEEIESTISAIIRRYEDLFDELHLDKAVLADIAISIRQLATLPKENNAFLFDYFLASGEDNNAKVVASFFKQNGLDARYISPKELGLLVTPEPGNARILPKALEKISVYRETQQILVIPGFFGYTEAGEICTFSRGGSDITGSIVAAGVQADLYENFTDVDGIYVAHPGIIEQPQTIQELTYREMRELAYAGFAVLHDEALMPAYRANIPVVIKNTNNPHHPGTLITTSRKVKHAPVVGIASDQGFASIYISKYLMNRELGFGRRLLEVLEKLALSYEHMPSGIDDITIVLREDQLTTEIENRLMAQLQEVLAPDELRITHHLSMIMIVGEGMRQRIGVTAESTMALAKEKINLEMINQGSSEVSIMFGIKKEQEEKAIKALYRTFFHD”, the entry is “not soluble”. Then “ASIYKNKKSHEQLSALKGSFCRNQFPGQSEVEHLTKVTGLSTREVRKWFSDRRYHCRNLKGSR”, with “soluble”; and “MISILYDEIVSCSRCERLIEYRKNFKIPPRFKDWNYWNKPVPGFGDEKAKILIVGLAPALHGGNRTGRVFTGDESGKWVIKGLYALGLSNKEEGKTREDGLEVKEVYLTNTVKCAPPKNKPTREEISNCSRFLIEEIKSLRIKVILALGRIAFDTILSLYGIKSKFYHGVVIKLPDDKILIGSYHPSAQNTKTGRLKWEDWIKILKLAYEIANNPQY”, with “soluble”; and “MLKLFSAFRKNKIWDFNGGIHPPEMKTQSNGTPLRQVPLAQRFVIPLKQHIGAEGELCVSVGDKVLRGQPLTRGRGKMLPVHAPTSGTVTAIAPHSTAHPSALAELSVIIDADGEDCWIPRDGWADYRTRSREELIERIHQFGVAGLGGAGFPTGVKLQGGGDKIETLIINAAECEPYITADDRLMQDCAAQVVEGIRILAHILQPREILIGIEDNKPQAISMLRAVLADSNDISLRVIPTKYPSGGAKQLTYILTGKQVPHGGRSSDIGVLMQNVGTAYAVKRAVIDGEPITERVVTLTGEAIARPGNVWARLGTPVRHLLNDAGFCPSADQMVIMGGPLMGFTLPWLDVPVVKITNCLLAPSANELGEPQEEQSCIRCSACADACPADLLPQQLYWFSKGQQHDKATTHNIADCIECGACAWVCPSNIPLVQYFRQEKAEIAAIRQEEKRAAEAKARFEARQARLEREKAARLERHKSAAVQPAAKDKDAIAAALARVKEKQAQATQPIVIKAGERPDNSAIIAAREARKAQARAKQAELQQTNDAATVADPRKTAVEAAIARAKARKLEQQQANAEPEQQVDPRKAAVEAAIARAKARKLEQQQANAEPEEQVDPRKAAVEAAIARAKARKLEQQQANAEPEQQVDPRKAAVEAAIARAKARKREQQPANAEPEEQVDPRKAAVEAAIARAKARKLEQQQANAVPEEQVDPRKAAVAAAIARAQAKKAAQQKVVNEDLEHHHHHH”, with “soluble”.

For the sequence “MGSDKIHHHHHHMTSYRIGIDVGGTHTDAVLLDETNQVMAETKAPTTEDVSRGIYQAMRDVIESAQVDRTRIDYAMLGTTHCTNAIVERKRLNTVGIIRIGAPATLAVKPLIGVPDDLRTLLGKHVYIVSGGHEFDGREIASLDEDHLYEIAHEIKGAVDSVAITSVFSPVSDNHEVRAAEIIREILGEAIPISLSKEIGSVGLLERENATILNASVVNVAQATAEGFVAALKEEGIEANVFFGQNDGTLMSVEYAKKYPILTIACGPTNSLRGASFLTGKENAIVVDVGGTTTDIGVLAQSFPRESSLAVEIGGARTNFRMPDLVSIGLGGGTIIRVNETDGTFTIGPESVGYRLPEKGLVFGGDTLTTTDVVVALGRANIGDRSKVAHLDKELLRRIYDRMVEMVEMAVDQMKTSSGDAPVILVGGGSILLPDQLRGASEVMKPEHLGVANAIGAAIAQVSGQIERVFSLDERGREQTLAYAKDLAREEAIKAGADPSDLTIVDVEDVPLAYLPGNATRIRVKAAGPLGSASAEQYEKGNVIP”, the “soluble on expression in E. coli” value is listed as “not soluble”. Then “MSLNYIEDIKNYIPFNEQEERDKELFLRCLNDFHDILTRDNTIAHLTSSAFAVNKERNKFLMIHHNIYNSWAWTGGHSDNEKDQLKVAIKELKEETGVKNPTPLLDKAFALDVLTVNGHIKRGKYVSSHLHLNLTYLIECSEDETLMLKEDENSGVMWIPFNEISKYCSEPHMIPIYEKLINKLKTQSKEGHHHHHH”, with “soluble”; and “MGSDKIHHHHHHMNKELASKFLSSIKHEREQDIQTTSRLLTTLSIQQLVQNGLAINNIHLENIRSGLIGKLYMELGPNLAVNDKIQRGDIKVGDIVLVRPAKTKVNTKTKPKVKKVSEDSNGEQAECSGVVYKMSDTQITIALEESQDVIATTFYSYSKLYILKTTNVVTYNRMESTMRKLSEISSPIQDKIIQYLVNERPFIPNTNSFQNIKSFLNPNLNDSQKTAINFAINNDLTIIHGPPGTGKTFTLIELIQQLLIKNPEERILICGPSNISVDTILERLTPLVPNNLLLRIGHPARLLDSNKRHSLDILSKKNTIVKDISQEIDKLIQENKKLKNYKQRKENWNEIKLLRKDLKKREFKTIKDLIIQSRIVVTTLHGSSSRELCSLYRDDPNFQLFDTLIIDEVSQAMEPQCWIPLIAHQNQFHKLVLAGDNKQLPPTIKTEDDKNVIHNLETTLFDRIIKIFPKRDMVKFLNVQYRMNQKIMEFPSHSMYNGKLLADATVANRLLIDLPTVDATPSEDDDDTKIPLIWYDTQGDEFQETADEATILGSKYNEGEIAIVKEHIENLRSFNVPENSIGVISPYNAQVSHLKKLIHDELKLTDIEISTVDGFQGREKDVIILSLVRSNEKFEVGFLKEERRLNVAMTRPRRQLVVVGNIEVLQRCGNKYLKSWSEWCEENADVRYPNIDDYL”, with “not soluble”. As for “MKLKAILIVALSVVLFLVGYREMKPISDEQKMESMIKALEKNDAKVEKWSWLARETKTISNIHTFQKLLNDVKEKANIQKWEVEQSPDGYKATSYKKLSSYEERVVVTWSKENTKENTFIIFEVSGAKWDPKYVQNMNKIFSEKPIIYTCVQGVLNDKIEGVLQNKTNQVLKDLSARAIEQVEERAFVSVSAYNKKWDDALSTNREKINVQIAIRSTDNKDTIVVGTPIITSEY”, the entry is “not soluble”; as for “MLDKNVLNEIGSKVNEILASSPARDVEKNMRAMLTGAFARLDLVTREEFDVQQEVIKRTRIKLAELEEKVRKLEQQLQQPAEVVSSNETGDA”, “not soluble”.

On to “MYQEFFTFIPVDIEELDKAFGGGLIRGATISIMYDAFSLGWALGFEMVKNLIRRNSFGVIHNYNLPTIKLISRASFVGLNIQELAKRKEIMILDVFGSKYDVPPYADYVLQVPNPTPETLNPKIESVYENKIFQVAGDRRIVKLVYTLDGVATMFGEEVAIKLLNGELAWLAKMYGKRNVMTILLLNVDMVSKKFIAWTSGVSDIVITFQSLTEEREGELVERMTVIKSLNPEFEPTSYEFRVTATGTGSHALDFRKIENKRDK”, for which the “soluble on expression in E. coli” value is listed as “soluble”. As for “MKLNLKNPLIFFDLETTGVDLVRDRIVEISILKVMPDGSEECKTRRINPERPIPPESTAIHGIRDEDVKDCPPFRSVAKSLAQWIEGCDLAGFNSTRFDVPMLVEEFLRAGVDIDLRHRKLIDVQTIFHKMEPRTLEAATRFYCNRTLENAHSAEADTRATYDVFKAQLDRYEGTLENDMAFLADFSRQSRNVDFAGRLVYDDNDNVIINFGKYRGRKALDVLRTDSGYYGWIMDADFTLNTKQEFTRLRMSLNNPETK”, the entry is “soluble”; as for “MHRPEAEKWLRRFERAPDARARLVCLPHAGGSASFFFPLAKALAPAVEVLAVQYPGRQDRRHEPPVDSIGGLTNRLLEVLRPFGDRPLALFGHAMGAIIGYELALRMPEAGLPAPVHLFASGRRAPSRYRDDDVRGASDERLVAELRKLGGSDAAMLADPELLAMVLPAIRSDYRAVETYRHEPGRRVDCPVTVFTGDHDPRVSVGEARAWEEHTTGPADLRVLPGGHFFLVDQAAPMIATMTEKLAGPALTGSTGGNSLEHHHHHH”, “soluble”. As for “MTVNDKKRLAIIGGGPGGLAAARVFSQSLPNFEIEIFVKDYDIGGVWHYPEQKSDGRVMYDHLETNISKKLMQFSGFPFEENVPLYPSRRNIWEYLKAYYKTFIANKDAISIHFSTEVTYLKKKNSQWEITSKDELRTTKSDFDFVIVASGHYSVPKLPTNIAGLDLWFDNKGAFHSKDFKNCEFAREKVVIVVGNGSSGQDIANQLTTVAKKVYNSIKEPASNQLKAKLIETVQTIDSADWKNRSVTLSDGRVLQNIDYIIFATGYYYSFPFIEPSVRLEVLGEGVTGDKHSSVNLHNLWEHMIYVKDPTLSFILTPQLVIPFPLSELQAAIMVEVFCKSLPITTTFDSNACGTHNFPKERTWNTMQNYRNY”, the entry is “soluble”.
